B1: TCTP-GST (GST-tagged recombinant TCTP) (natural protein, human, UniProt P13693 1-172, looked up)
chain: MIIYRDLISHDEMFSDIYKIREIADGLCLEVEGKMVSRTEGNIDDSLIGGNASAEGPEGEGTESTVITGVDIVMNHHLQETSFTKEAYKKYIKDYMKSIKGKLEEQRPERVKPFMTGAAEQIKHILANFKNYQFFIGENMNPDGMVALLDYREDGVTPYMIFFKDGLEMEKC
notes: translationally controlled tumor protein (TCTP); also called GST-tagged TCTP; TCTP-GST protein; source: E. coli, purified (GST fusion protein purification kit)
B2: APAF-97 (Apaf-1 residues 1-97, CARD), His-tagged (domain or fragment, UniProt O14727 1-97, looked up)
chain: MDAKARNCLLQHREALEKDIKTSYIMDHMISDGFLTISEEEKVRNEPTQQQRAAMLIKMILKKDNDSYVSFYNALLHEGYKDLAALLHDGIPVVSSS
notes: Apaf-1 residues 1-97 (caspase recruitment domain, CARD); also called APF-97; CARD of Apaf-1; source: E. coli BL21(DE3)pLysS, purified (Ni Sepharose beads); not shown: His tag, C-terminal, kept

Assays:
Experiment in all cases: pull-down; His-tagged Apaf-1 variants or WDR immobilised on Handee spin column, incubated with TCTP-GST; eluates separated by SDS-PAGE and silver stained
Conditions in all cases: both partners purified
[1] = target: T1, Full APAF-1 (residues 1-1194), His-tagged (UniProt O14727-3 1-1194)
T1 construct: Apaf-1, full length, printed length 1194 residues (residues 1-1194): CARD 1-97, CED-4 98-412, WD-40 repeats 413-1194; also called full-length Apaf-1; His-Apaf-1; source: E. coli BL21(DE3)pLysS, purified (Ni Sepharose beads); not shown: His tag, C-terminal, kept
T1 sequence (looked up): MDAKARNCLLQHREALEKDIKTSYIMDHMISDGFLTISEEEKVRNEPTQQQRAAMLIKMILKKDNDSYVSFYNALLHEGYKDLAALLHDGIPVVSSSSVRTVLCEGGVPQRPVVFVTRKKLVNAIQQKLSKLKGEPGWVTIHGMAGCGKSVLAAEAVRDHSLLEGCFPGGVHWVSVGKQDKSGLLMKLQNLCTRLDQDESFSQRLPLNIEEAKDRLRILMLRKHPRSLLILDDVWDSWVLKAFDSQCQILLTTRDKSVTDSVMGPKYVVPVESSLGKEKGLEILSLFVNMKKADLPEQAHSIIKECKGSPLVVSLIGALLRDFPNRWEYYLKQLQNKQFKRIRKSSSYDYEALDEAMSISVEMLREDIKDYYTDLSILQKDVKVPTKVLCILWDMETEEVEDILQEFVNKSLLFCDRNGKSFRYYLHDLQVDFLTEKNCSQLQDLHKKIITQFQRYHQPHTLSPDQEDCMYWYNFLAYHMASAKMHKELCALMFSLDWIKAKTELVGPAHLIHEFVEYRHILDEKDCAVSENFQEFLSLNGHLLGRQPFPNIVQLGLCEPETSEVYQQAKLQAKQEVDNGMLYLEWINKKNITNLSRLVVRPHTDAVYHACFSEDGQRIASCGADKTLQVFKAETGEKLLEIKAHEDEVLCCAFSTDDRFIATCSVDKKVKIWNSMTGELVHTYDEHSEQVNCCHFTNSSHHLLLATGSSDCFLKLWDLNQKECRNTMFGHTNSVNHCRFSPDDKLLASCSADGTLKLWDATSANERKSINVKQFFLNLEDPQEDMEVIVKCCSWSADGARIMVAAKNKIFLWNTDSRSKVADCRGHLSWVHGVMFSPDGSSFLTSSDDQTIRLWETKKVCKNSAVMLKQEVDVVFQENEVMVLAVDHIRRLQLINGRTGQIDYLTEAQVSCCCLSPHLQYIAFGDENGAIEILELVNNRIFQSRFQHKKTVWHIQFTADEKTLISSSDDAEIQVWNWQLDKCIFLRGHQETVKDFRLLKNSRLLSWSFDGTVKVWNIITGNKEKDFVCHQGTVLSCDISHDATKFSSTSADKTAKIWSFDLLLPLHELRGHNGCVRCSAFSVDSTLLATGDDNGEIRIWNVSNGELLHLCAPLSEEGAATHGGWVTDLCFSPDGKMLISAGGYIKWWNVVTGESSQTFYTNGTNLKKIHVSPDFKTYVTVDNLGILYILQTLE

[2] = target: T2, APAF-530 (Apaf-1 residues 1-530), His-tagged (UniProt O14727-3 1-530)
T2 construct: Apaf-1 residues 1-530; source: E. coli BL21(DE3)pLysS, purified (Ni Sepharose beads); not shown: His tag, C-terminal, kept
T2 sequence (looked up): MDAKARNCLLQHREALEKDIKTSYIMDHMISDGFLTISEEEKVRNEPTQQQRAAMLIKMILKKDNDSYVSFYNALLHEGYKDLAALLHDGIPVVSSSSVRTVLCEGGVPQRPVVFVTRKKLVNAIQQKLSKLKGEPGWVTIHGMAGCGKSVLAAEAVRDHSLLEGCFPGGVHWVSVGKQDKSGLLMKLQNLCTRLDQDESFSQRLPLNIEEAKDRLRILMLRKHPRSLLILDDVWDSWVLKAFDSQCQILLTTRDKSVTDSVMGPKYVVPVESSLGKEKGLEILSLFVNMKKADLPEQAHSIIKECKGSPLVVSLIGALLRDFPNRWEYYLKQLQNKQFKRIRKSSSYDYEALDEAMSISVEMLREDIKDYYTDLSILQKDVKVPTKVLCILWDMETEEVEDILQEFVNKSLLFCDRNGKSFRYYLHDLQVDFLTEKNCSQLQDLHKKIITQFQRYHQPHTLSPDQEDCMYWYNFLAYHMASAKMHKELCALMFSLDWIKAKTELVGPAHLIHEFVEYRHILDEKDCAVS

[3] = target: T3, APAF-420 (Apaf-1 residues 1-420), His-tagged (UniProt O14727-3 1-420)
T3 construct: Apaf-1 residues 1-420; source: E. coli BL21(DE3)pLysS, purified (Ni Sepharose beads); not shown: His tag, C-terminal, kept
T3 sequence (looked up): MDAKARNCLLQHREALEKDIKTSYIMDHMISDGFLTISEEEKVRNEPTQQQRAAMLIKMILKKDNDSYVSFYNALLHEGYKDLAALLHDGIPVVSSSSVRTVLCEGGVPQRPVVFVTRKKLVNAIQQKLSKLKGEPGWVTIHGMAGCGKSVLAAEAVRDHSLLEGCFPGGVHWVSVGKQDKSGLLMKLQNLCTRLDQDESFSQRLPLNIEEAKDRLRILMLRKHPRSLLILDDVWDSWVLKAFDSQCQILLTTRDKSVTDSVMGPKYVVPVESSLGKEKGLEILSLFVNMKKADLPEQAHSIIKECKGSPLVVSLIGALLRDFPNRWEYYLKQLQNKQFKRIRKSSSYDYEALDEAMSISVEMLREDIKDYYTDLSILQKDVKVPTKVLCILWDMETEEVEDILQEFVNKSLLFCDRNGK

[4] = target: B1

Row | Binder | binding result [1] | binding result [2] | binding result [3] | binding result [4]
1 | B1 | binds | binds | binds | –
2 | B2 | – | – | – | binds

Source: article PMC4015309, “Interaction of translationally controlled tumor protein with Apaf-1 is involved in the development of chemoresistance in HeLa cells” (BMC Cancer, 2014)
